# Results published in US20160271142A1 (CELLERANT THERAPEUTICS, published 2016).
# T1: C type Lectin Like molecule 1 (CLL-1), on human cell lines (human, UniProt Q5QGZ9 1-265)
# T1 construct: whole, on cells; The target was presented on cells, either endogenously (HL-60, AML-5) or in over-expressing lines (TF1-CLL1, HEL92.1.7-CLL1); also called CLEC12A; DCAL-2
# T1 sequence (looked up): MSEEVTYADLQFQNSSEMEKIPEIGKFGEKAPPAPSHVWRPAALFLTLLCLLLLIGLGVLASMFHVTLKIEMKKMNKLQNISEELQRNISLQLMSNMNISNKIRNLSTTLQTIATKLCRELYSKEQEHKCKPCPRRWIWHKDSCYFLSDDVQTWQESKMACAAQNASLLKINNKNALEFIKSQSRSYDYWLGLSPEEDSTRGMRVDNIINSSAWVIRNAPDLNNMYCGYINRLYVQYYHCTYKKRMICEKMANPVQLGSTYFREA
# B1: C6-CLT-D202 ADC (humanized anti-CLL1 antibody C6-S239C-CYSMAB, cys-substituted at position 239, conjugated to CLT-D202) (antibody, V domains shown)
# VH: EVQLVQSGAEVKKPGASVKMSCKASGYTFTSYFIHWVRQAPGQGLEWIGFINPYNDGSKYAQKFQGRATLTSDKSTSTVYMELSSLRSEDTAVYYCTRDDGYYGYAMDYWGQGTLVTVSS
# VL: DIQMTQSPSSLSASVGDRVTLTCRATQELSGYLSWLQQKPGKAIKRLIYAASTLDSGVPSRFSGNRAGTDYTLTISSLQPEDFATYYCLQYAIYPYTFGQGTKLEIK
# modifications: CLT-D202 (maleimide linker-drug) on the engineered cysteine at position 239 (S239C) of the heavy chain constant region; drug to antibody ratio 1.7
# What was measured:
# [1] = biological target: T1, C type Lectin Like molecule 1 (CLL-1), …; assay: mean fluorescent intensity of ADC binding to PL21 cells, relative to control C0-CLT-D202 ADC; CLL-1 status of this line not stated
# [2] = biological target: T1, C type Lectin Like molecule 1 (CLL-1), …; assay: mean fluorescent intensity of ADC binding to HNT-34 cells, relative to control C0-CLT-D202 ADC; CLL-1 status of this line not stated
# [3] = biological target: T1, C type Lectin Like molecule 1 (CLL-1), …; assay: mean fluorescent intensity of ADC binding to EOL-1 cells, relative to control C0-CLT-D202 ADC; CLL-1 status of this line not stated
# [4] = biological target: T1, C type Lectin Like molecule 1 (CLL-1), …; assay: mean fluorescent intensity of ADC binding to HL-60 cells (express CLL-1), relative to control C0-CLT-D202 ADC
# [5] = biological target: T1, C type Lectin Like molecule 1 (CLL-1), …; assay: cell-based or functional assay
# [6] = biological target: T1, C type Lectin Like molecule 1 (CLL-1), …; assay: mean fluorescent intensity of ADC binding to U937 cells, relative to control C0-CLT-D202 ADC; CLL-1 status of this line not stated
# [7] = biological target: T1, C type Lectin Like molecule 1 (CLL-1), …; assay: cell-based or functional assay; remark: listed apart in the source
# [8] = biological target: T1, C type Lectin Like molecule 1 (CLL-1), …; assay: mean fluorescent intensity of ADC binding to KG-1a cells, relative to control C0-CLT-D202 ADC; CLL-1 status of this line not stated
# [9] = biological target: T1, C type Lectin Like molecule 1 (CLL-1), …; assay: mean fluorescent intensity of ADC binding to HEL92.1.7-CLL1 cells, relative to control C0-CLT-D202 ADC
# [10] = biological target: T1, C type Lectin Like molecule 1 (CLL-1), …; assay: mean fluorescent intensity of ADC binding to AML2 cells, relative to control C0-CLT-D202 ADC; CLL-1 status of this line not stated
# [11] = biological target: T1, C type Lectin Like molecule 1 (CLL-1), …; assay: mean fluorescent intensity of ADC binding to parental HEL92.1.7 cells, relative to control C0-CLT-D202 ADC; CLL-1 status of this line not stated
# [12] = biological target: T1, C type Lectin Like molecule 1 (CLL-1), …; assay: mean fluorescent intensity of ADC binding to 293 cells, relative to control C0-CLT-D202 ADC; CLL-1 status of this line not stated
# [13] = biological target: T1, C type Lectin Like molecule 1 (CLL-1), …; assay: mean fluorescent intensity of ADC binding to AML5 cells (express CLL-1), relative to control C0-CLT-D202 ADC
# [14] = biological target: T1, C type Lectin Like molecule 1 (CLL-1), …; assay: cell-based or functional assay; remark: listed apart in the source
# [15] = biological target: T1, C type Lectin Like molecule 1 (CLL-1), …; assay: mean fluorescent intensity of ADC binding to SHI-1 cells, relative to control C0-CLT-D202 ADC; CLL-1 status of this line not stated
binder,measurement,setting,value
B1,C6 relative MFI C6/C0,[1],14.7 ratio
same,C6 relative MFI C6/C0,[2],5.8 ratio
same,C6 relative MFI C6/C0,[3],20.5 ratio
same,C6 relative MFI C6/C0,[4],20 ratio
same,"IC50 ug/mL, cell killing, TF1-CLL1 cells",[5],0.008 µg/mL
same,C6 relative MFI C6/C0,[6],14.7 ratio
same,"IC50, killing of proliferating AML-5 cells",[7],0.03 µg/mL
same,"IC50, killing of quiescent AML-5 cells",[7],0.02 µg/mL
same,"decrease in IC50 of cell killing, TF1-CLL1 against TF1",[7],~1000 fold
same,"target dependent cell killing, HL-60 cells, relative to control C0-CLT-D202 ADC",[7],> 500 fold
same,C6 relative MFI C6/C0,[8],1.3 ratio
same,C6 relative MFI C6/C0,[9],26.1 ratio
same,C6 relative MFI C6/C0,[10],13 ratio
same,C6 relative MFI C6/C0,[11],1.3 ratio
same,C6 relative MFI C6/C0,[12],1.2 ratio
same,C6 relative MFI C6/C0,[13],15 ratio
same,"IC50 ng/mL, cell killing, AML5 cells",[14],13 ng/mL
same,"IC50 ng/mL, cell killing, HEL92.1.7-CLL1 cells",[14],17 ng/mL
same,"IC50 ng/mL, cell killing, HL-60 cells",[14],11 ng/mL
same,C6 relative MFI C6/C0,[15],1.4 ratio
